According to publication doi:10.1101/2022.03.06.483192:
“And” between values parts separate entries of the source, which are not always exact repeats. Equal values may be shown once.

Assays:
MBP-SYCP1αNcore = MBP-SYCP1αNcore (UniProt Q15431); assay: SEC-MALS
SYCP1αNcore [1] = target: SYCP1αNcore (UniProt Q15431); assay: SEC-MALS
SYCP1αN = SYCP1αN (UniProt Q15431); assay: SEC-MALS
SYCP1αNcore [2] = target: SYCP1αNcore (UniProt Q15431); assay: ITC

Chain of SYCP1αNcore (Q15431 206-362): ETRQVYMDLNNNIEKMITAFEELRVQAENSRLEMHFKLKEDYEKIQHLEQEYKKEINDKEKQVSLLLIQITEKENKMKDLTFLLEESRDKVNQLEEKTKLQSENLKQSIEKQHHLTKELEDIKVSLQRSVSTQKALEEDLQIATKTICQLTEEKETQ
Chain of MBP-SYCP1αNcore (Q15431 206-362): as above
Chain of SYCP1αN (Q15431 101-362): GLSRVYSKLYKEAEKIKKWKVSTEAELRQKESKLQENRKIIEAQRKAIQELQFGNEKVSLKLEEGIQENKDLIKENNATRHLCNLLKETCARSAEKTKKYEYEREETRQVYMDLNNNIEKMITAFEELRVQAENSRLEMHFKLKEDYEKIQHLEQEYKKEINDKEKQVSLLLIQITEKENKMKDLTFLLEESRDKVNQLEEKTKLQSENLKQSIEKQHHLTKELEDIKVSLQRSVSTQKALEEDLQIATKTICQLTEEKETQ

MBP-SYCE3 (from UniProt A1L190 11-81) (natural protein)
stoichiometry N (SYCP1 chains per SYCE3 chain) (MBP-SYCP1αNcore): 2 | stoichiometry N (SYCP1 chains per SYCE3 chain) (SYCP1αNcore [1]): 2

SYCE3 P53Q (from UniProt A1L190 11-81) (natural protein)
stoichiometry N (SYCP1 chains per SYCE3 chain) (SYCP1αNcore [1]): 2

SYCE3 W41E Y44E (from UniProt A1L190 11-81) (natural protein)
stoichiometry N (SYCP1 chains per SYCE3 chain) (SYCP1αN): 2 | stoichiometry N (SYCP1 chains per SYCE3 chain) (SYCP1αNcore [1]): 2 | KD, single replicate (SYCP1αNcore [2]): 16 nM and 10 nM and 22 nM | Kd (SYCP1αNcore [2]): 16 nM
